Target: MYC2-GST (Solanum lycopersicum (MicroTom), UniProt A0A3Q7HRZ6 1-689)
Assay: EMSA; strong binding; 20-40 ng protein; EMSA: 10 mM Tris-HCl pH 7.2, 50 mM KCl, 1 mM DTT, 2.5% glycerol, 0.05% NP-40, 50 ng/uL poly(dI-dC), room temperature, 20 min; pull-down: 10 mM HEPES pH 7.9, 100 mM KCl, 5 mM MgCl2, 10% glycerol, 1 mM DTT, 0.5% NP-40, 4 C overnight
Conditions: protein: recombinant; tags: GST (pGEX-4T-1); chain copies: 2; label: 3'-biotin; blunt

Chain of MYC2-GST (A0A3Q7HRZ6 whole entry): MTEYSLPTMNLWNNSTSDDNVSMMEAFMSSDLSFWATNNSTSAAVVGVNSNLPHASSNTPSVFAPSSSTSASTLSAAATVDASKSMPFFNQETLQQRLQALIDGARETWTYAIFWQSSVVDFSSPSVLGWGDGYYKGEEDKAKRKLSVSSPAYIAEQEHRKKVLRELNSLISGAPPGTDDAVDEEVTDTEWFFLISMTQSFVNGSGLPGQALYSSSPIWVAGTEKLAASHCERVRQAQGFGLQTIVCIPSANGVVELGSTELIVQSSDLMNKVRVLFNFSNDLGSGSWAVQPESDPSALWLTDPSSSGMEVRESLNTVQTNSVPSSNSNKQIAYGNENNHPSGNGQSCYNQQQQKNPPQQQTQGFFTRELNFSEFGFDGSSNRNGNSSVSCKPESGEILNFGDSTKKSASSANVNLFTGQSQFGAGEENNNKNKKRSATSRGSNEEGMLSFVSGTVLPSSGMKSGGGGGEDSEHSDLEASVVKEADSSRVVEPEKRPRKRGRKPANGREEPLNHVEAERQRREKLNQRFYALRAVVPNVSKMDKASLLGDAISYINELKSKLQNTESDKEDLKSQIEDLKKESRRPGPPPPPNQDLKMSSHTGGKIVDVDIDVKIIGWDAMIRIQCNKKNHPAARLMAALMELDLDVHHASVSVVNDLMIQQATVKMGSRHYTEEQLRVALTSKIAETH

B1: GE1-1 probe (dsDNA)
DNA 1: ATGTATGTGTCTAATCAAACATCGGTGGCATAATTTTTTTTAGCATCAAA
DNA 2: TTTGATGCTAAAAAAAATTATGCCACCGATGTTTGATTAGACACATACAT
Does B1 bind?
Result: binds
